Reference: patent publication US20130280298A1 (FOLIA BIOTECH, published 2013)

How the values were obtained:
[1] = molecular target: T1, influenza A/WSN/33 (H1N1) NP protein (influenza virus A/WSN/33 (H1N1), UniProt P15682 1-498)
[2] = molecular target: T1, influenza A/WSN/33 (H1N1) NP protein; assay: phage display panning (Ph.D.-7) on NP coated on MaxiSorp plates, 5 rounds

T1 sequence (P15682 whole entry): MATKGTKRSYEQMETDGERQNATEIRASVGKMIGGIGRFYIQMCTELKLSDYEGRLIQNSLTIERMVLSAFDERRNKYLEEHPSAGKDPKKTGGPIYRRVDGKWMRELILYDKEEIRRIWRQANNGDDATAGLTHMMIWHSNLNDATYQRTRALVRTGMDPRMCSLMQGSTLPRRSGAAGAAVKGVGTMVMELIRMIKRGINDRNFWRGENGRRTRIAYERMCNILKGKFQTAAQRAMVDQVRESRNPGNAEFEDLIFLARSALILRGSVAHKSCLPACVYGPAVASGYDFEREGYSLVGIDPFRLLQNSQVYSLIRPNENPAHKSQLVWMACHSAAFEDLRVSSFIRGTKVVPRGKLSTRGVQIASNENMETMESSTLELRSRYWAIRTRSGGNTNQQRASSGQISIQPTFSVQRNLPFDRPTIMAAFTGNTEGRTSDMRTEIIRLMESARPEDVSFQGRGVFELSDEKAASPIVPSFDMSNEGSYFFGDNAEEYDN

B1: PapMV HAV-ANP2 (designed binder)
chain: MASTPNIAFPAITQEQMSSIKVDPTSNLLPSQEQLKSVSTLMVAAKVPAASVTTVALELVNFCYDNGSSAYTTVTGPSSIPEISLAQLASIVKASGTSLRKFCRYFAPIIWNLRTDKMAPANWEASGYKPSAKFAAFDFFDGVENPAAMQPPSGLTRSPTQEERIANATNKQVHLFQAAAQDNNFASNSAFITKGQISGSTPTIQFLPPPETSKVWQIPHTRHHHHHH
- fold increase of the avidity (OPD, nm) over HAV-ANP 1 and PapMV VLPs [1]: ~5 fold
- fold increase of the signal over PapMV HAV-ANP1 and PapMV VLPs [1]: 5 fold

Binder: FHEFWPT (also called ANP1)
- binding result [2]: binds
